Literature values in patent US20200247855A1, “THERAPY AND DIAGNOSTICS” (OXFORD UNIVERSITY INNOVATION LIMITED, priority 2017, published 2020).
Where two headings read alike, the source gives them in different places.

T1: CCL8_HUMAN (Homo sapiens, UniProt P80075)
T1 sequence (P80075 24-99): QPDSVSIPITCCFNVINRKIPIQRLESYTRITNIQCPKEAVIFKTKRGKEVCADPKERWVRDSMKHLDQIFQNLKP

T2: CCL1_HUMAN (Homo sapiens, UniProt P22362)
T2 sequence (P22362 24-96): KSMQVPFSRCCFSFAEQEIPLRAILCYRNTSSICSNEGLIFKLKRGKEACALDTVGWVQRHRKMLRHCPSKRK

T3: CCL4_HUMAN (Homo sapiens, UniProt P13236)
T3 sequence (P13236 24-92): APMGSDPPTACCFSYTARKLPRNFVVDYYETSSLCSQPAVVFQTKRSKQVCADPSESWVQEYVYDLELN

T4: CCL24_HUMAN (Homo sapiens, UniProt O00175)
T4 sequence (O00175 27-119): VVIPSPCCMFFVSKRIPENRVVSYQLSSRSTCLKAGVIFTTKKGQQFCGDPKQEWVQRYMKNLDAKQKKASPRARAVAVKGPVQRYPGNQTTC

T5: CCL19_HUMAN (Homo sapiens, UniProt Q99731)
T5 sequence (Q99731 22-98): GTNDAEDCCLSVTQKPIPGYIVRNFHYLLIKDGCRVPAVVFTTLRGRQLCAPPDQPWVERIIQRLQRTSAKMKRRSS

T6: CCL17_HUMAN (Homo sapiens, UniProt Q92583)
T6 sequence (Q92583 24-94): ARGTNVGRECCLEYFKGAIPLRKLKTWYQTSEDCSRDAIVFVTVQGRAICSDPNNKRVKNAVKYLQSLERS

B1: P672_RHIPU: tick CKBP, Rhipicephalus pulchellus (protein, listed as Rhipicephalus pulchellus)
chain: VCEVSEQEGVGEDNATEDEDYEDFFKPVTCYFANSTVGPLRPPNCTVVCTNNTAWWNDTKSDGGHCYSEYRPEKRTHSREIYNCTIGVCGNGTCIANHTYADCW
B2: EVASIN4: previously described tick CKBP evasin 4, from Rhipicephalus sanguineus (protein, listed as Rhipicephalus sanguineus)
chain: EVPQMTSSSAPDLEEEDDYTAYAPLTCYFTNSTLGLLAPPNCSVLCNSTTTWFNETSPNNASCLLTVDFLTQDAILQENQPYNCSVGHCDNGTCAGPPRHAQCW

Assays:
[1] = target: T1, CCL8_HUMAN; conditions: Eaton, J. R. O. et al., JBC [2018], cited from earlier work
[2] = target: T2, CCL1_HUMAN; conditions: read-out: Kd, CCL1_HUMAN, previously described evasins; data obtained from publications [20-22,32]; cited from earlier work
[3] = target: CCL26_HUMAN (Homo sapiens, UniProt Q9Y258); conditions: read-out: Kd, CCL26_HUMAN, previously described evasins; data obtained from publications [20-22,32]; cited from earlier work
Sequence of CCL26_HUMAN (Q9Y258 24-94): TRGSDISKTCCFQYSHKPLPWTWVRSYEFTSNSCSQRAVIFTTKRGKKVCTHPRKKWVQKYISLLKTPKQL

[4] = target: T3, CCL4_HUMAN; conditions: data obtained from publications [20-22,32]; cited from earlier work
[5] = target: T4, CCL24_HUMAN; conditions: read-out: Kd, CCL24_HUMAN, previously described evasins; data obtained from publications [20-22,32]; cited from earlier work
[6] = target: CCL13_HUMAN (Homo sapiens, UniProt Q99616); conditions: data obtained from publications [20-22,32]; cited from earlier work
Sequence of CCL13_HUMAN (Q99616 17-98): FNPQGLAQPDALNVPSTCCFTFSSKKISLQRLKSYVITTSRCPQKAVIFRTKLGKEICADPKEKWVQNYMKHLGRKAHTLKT

[7] = target: CCL2_HUMAN (Homo sapiens, UniProt P13500); conditions: data obtained from publications [20-22,32]; cited from earlier work
Sequence of CCL2_HUMAN (P13500 24-99): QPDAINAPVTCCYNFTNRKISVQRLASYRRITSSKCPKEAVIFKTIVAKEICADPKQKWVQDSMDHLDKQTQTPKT

[8] = target: CCL7_HUMAN (Homo sapiens, UniProt P80098); conditions: read-out: Kd, CCL7_HUMAN, previously described evasins; data obtained from publications [20-22,32]; cited from earlier work
Sequence of CCL7_HUMAN (P80098 24-99): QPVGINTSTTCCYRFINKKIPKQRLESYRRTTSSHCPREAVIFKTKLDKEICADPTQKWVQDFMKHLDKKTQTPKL

[9] = target: T1, CCL8_HUMAN; conditions: read-out: Kd, CCL8_HUMAN, previously described evasins; data obtained from publications [20-22,32]; cited from earlier work
[10] = target: CCL20_HUMAN (Homo sapiens, UniProt P78556); conditions: data obtained from publications [20-22,32]; cited from earlier work
Sequence of CCL20_HUMAN (P78556 27-96): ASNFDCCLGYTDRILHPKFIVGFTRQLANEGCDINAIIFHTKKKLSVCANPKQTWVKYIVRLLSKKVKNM

[11] = target: T5, CCL19_HUMAN; conditions: read-out: Kd, CCL19_HUMAN, previously described evasins; data obtained from publications [20-22,32]; cited from earlier work
[12] = target: T6, CCL17_HUMAN; conditions: read-out: Kd, CCL17_HUMAN, previously described evasins; data obtained from publications [20-22,32]; cited from earlier work

Molecule	Residency time (RT) of P672:CCL8 interaction [1]	Kd ([1]; read-out: Kd of P672:CCL8 interaction)	Kd [2]	Kd [3]	Kd, CCL4_HUMAN, previously described evasins [4]	Kd [5]	Kd, CCL13_HUMAN, previously described evasins [6]	Kd, CCL2_HUMAN, previously described evasins [7]	Kd [8]	Kd [9]	Kd, CCL20_HUMAN, previously described evasins [10]	Kd [11]	Kd [12]
B1	27 min	8.5 nM	–	–	–	–	–	–	–	–	–	–	–
B2	–	–	0.2 nM	0.88 nM	No Binding	0.41 nM	No Binding	No Binding	0.7 nM	0.25 nM	No Binding	0.14 nM	0.61 nM
